In US20260263521A1 (AIMED BIO, published 2026):
Changes are numbered by the printed parent chain. Where “and” joins values, the source holds several entries; their conditions need not be identical. Equal entries are not always repeated.

B1: P001004 (IgG) (antibody, V domains shown)
VH: EVQLLESGGGLVQPGGSLRLSCAASGFTFSDYYMSWVRQAPGKGLEWVSGIYPGDGSIYYADSVKGRFTISRDNSKNTLYLQMNSLRAEDAAVYYCAKGLDLYEPMAFDYWGQGTLVTVSS
VL: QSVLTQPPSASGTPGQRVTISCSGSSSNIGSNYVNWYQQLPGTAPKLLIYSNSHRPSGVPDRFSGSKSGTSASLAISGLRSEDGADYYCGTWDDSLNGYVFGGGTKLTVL
B2: P001008 (IgG) (antibody, V domains shown)
VH: EVQLLESGGGLVQPGGSLRLSCAASGFTFSSYDMSWVRQAPGKGLEWVSWISHGGGSIYYADSVKGRFTISRDNSKNTLYLQMNSLRAEDTAVYYCARDAPALMHSLFDYWGQGTLVTVSS
VL: QSVLTQPPSASGTPGQRVTISCSGSSSNIGSNHVNWYQQLPGTAPKLLIYYDSQRPSGVPDRFSGSKSGTSASLAISGLRSEDEADYYCGSWDASLNGYVFGGGTKLTVL
B3: P001003 (IgG) (antibody, V domains shown)
VH: EVQLLESGGGLVQPGGSLRLSCAASGFTFSDYAMSWVRQAPGKGLEWVSAISHGGSSKYYADSVKGRFTISRDNSKNTLYLQMNSLRAEDTAVYYCARGPEVMLEFDYWGQGTLVTVSS
VL: QSVLTQPPSASGTPGQRVTISCTGSSSNIGNNAVTWYQQLPGTAPKLLIYSDNHRPSGVPDRFSGSKSGTSASLAISGLRSEDEADYYCAAWDSSLSGYVFGGGTKLTVL
B4: P001010 (IgG) (antibody, V domains shown)
VH: EVQLLESGGGLVQPGGSLRLSCAASGFTFSNYAMSWVRQAPGKGLEWVSSISPGGGSIYYADSVKGRFTISRDNSKNTLYLQMNSLRAEDTAVYYCARDPGQMFWPLFDYWGQGTLVTVSS
VL: B2 VL with S23T, H33N, N35S, Y51D, Q54H
B5: P001005 (IgG) (antibody, V domains shown)
VH: EVQLLESGGGLVQPGGSLRLSCAASGFTFSGYDMSWVRQAPGKGLEWVSQIYPGNGSKYYADSVKGRFTISRDNSKNALYLQMNSLRAEDTAVYYCAKDLQTWTSRRFDYWGQGTLVTVSS
VL: B2 VL with S31N, H33D, Y51S, D52N, Q54H, E84G, S91T, A94D
B6: 1H10 (hybridoma clone) (antibody, V domains shown)
VH: QVQLQQPGAELVKPGTSVKLSCKASGYNFTSYWINWVKLRPGQGLEWIGDINPGSGSTNYNEKFRSKATLTVGTSSSTAYMQLSSLASEDSALYYCAREDYYGSRFFYWGQGTLVTVSA
VL: DVVMTQTPLSLPVSLGDQASISCRSSQSLVHSNGNTYLHWYLQKPGQSPKLLIYKVSNRFSGVPDRFSGSGSGTDFTLKISRVEAEDLGVYFCSQSTHVTFGAGTKLELK
B7: P001018 (huOX108.1) (antibody, V domains shown)
VH: QVQLVQSGAEVKKPGASVKVSCKASGYTFTSYVMHWVRQAPGQGLEWMGYINPYNDDTNYNEKFKGRVTMTRDTSTSTVYMELSSLRSEDTAVYYCAREDYYGSRWGYWGQGTLVTVSS
VL: DIVLTQSPASLAVSPGQRATITCRASKSVSTSGYSYMHWYQQKPGQPPKLLIYLASNLESGVPARFSGSGSGTDFTLTINPVEANDTANYYCQHSRELLTFGQGTKVEIK
notes: also called humanized antibody P001018

Legend:
[1] = biological target: T1, human CD200RLa (Sino Biological, 11620-H08H) recombinant protein (human, UniProt Q6Q8B3 24-239); test: ELISA, plate-bound human CD200RLa (2 ug/mL), antibody 0.0192-300 nM, O.D 450 nm; panel 'recombinant human CD200RLa'
T1 construct: Bought; construct not described
T1 sequence (looked up): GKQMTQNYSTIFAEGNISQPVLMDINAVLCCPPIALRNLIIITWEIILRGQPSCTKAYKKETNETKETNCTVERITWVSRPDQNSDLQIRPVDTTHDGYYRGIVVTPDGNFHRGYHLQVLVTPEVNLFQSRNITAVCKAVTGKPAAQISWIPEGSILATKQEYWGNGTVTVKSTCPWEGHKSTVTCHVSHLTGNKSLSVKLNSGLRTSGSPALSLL
Description: (§1) 96-well plates were coated with human CD200RLa (Sino Biological, 11620-H08H) and monkey CD200RLa (Sino Biological, 11576-C02H) recombinant proteins at a concentration of 2 μg/mL at 4° C. for 16 hours, and blocked with 3% skim milk for 1 hour. […] Color was developed with a TMB substrate solution (Thermo Scientific, 34029, 1-Step™ Ultra TMB-ELISA Substrate Solution). The color reaction was stopped with stop solution (Invitrogen, SS04, ELISA Stop Solution).

Hybrid CD200R1 MH [2] = biological target: T2, Hybrid CD200R1 MH (mouse;human, UniProt Q9ES57;Q8TD46); test: ELISA, plate-bound MH hybrid (1 ug/mL), antibody 0.0192-300 nM, O.D 450 nm; panel 'P001 MH domain-1)'
T2 construct: single domain; mouse D1 over human D2; also called MH hybrid domain; P001 MH domain
T2 sequence (hybrid extracellular part, looked up): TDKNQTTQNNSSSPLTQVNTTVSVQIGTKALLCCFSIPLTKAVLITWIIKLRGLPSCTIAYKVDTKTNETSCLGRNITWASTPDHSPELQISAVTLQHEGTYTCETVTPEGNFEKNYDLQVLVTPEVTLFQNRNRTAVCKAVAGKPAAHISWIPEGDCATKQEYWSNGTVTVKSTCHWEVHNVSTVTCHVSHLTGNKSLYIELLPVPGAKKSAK
Description: (§2) Recombinant proteins were produced from the extracellular Ig-like V-type domain and Ig-like C2-type domain of human CD200R1, each designed as human-mouse (HM hybrid domain) and mouse-human (MH hybrid domain) recombinant proteins. A 96-well plate was coated at a concentration of 1 μg/mL with each protein at 4° C. for 16 hours and blocked with 3% skim milk. […] After color development with TMB substrate solution (Thermo Scientific, 34029, 1-Step™ Ultra TMB-ELISA Substrate Solution), the color reaction was stopped with a stop solution (Invitrogen, SS04, ELISA Stop Solution), and the absorbance was measured at an O.D. of 450 nm.

[3] = biological target: T3, human CD200R1 expressed on cells (Jurkat-CD200R1, U937-CD200R1, HH cells) (human, UniProt Q8TD46 25-348); test: flow cytometry on Jurkat-CD200R1 and HH cells, 500 nM antibody in IgG1 form
T3 construct: whole, on cells; also called HH (CRL-2105); cell surface-expressed CD200R1
T3 sequence (looked up): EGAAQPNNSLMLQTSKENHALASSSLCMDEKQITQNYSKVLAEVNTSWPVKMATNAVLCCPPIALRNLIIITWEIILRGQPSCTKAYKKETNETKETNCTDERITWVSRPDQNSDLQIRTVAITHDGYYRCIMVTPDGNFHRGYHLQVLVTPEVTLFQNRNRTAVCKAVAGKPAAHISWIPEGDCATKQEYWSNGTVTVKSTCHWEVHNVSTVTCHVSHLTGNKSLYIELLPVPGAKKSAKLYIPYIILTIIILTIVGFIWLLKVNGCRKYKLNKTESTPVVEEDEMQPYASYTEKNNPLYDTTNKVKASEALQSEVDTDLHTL
Description: The cells were washed by centrifugation at 130 g for 5 minutes. The cells were seeded onto 96-well round-bottom plates (SPL, #34296) at a density of 1×10⁵ cells/well in Flow cytometry staining buffer (Invitrogen, #00-4222-26) or FACS buffer. […] After incubation for 1 hour at 4° C., the cells were treated with Alexa-647 Goat anti-human IgG (H+L) cross-adsorbed secondary antibody (Invitrogen, #A21445) and incubated at 4° C. for an additional 30 minutes. After washing twice with FACS buffer, flow cytometry analysis was performed using a Novocyte Flow cytometer (Agilent).

[4] = biological target: T4, mouse CD200R1 protein (R&D systems, 2554-CD) (mouse, UniProt Q9ES57 26-238, limits assumed); test: ELISA, plate-bound mouse CD200R1 (2 ug/mL), IgG 0.0192-300 nM, OD 450 nm; panel 'mouse CD200R1'
T4 construct: Bought; construct not described
T4 sequence (looked up): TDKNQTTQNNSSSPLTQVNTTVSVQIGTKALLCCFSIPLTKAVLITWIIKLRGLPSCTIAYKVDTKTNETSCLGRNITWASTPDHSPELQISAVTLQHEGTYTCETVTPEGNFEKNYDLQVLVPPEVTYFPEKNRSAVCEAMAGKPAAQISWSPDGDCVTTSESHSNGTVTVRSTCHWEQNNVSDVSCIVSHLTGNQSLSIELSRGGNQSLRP
Description: (§3) 96-well plates were coated with human CD200R1 (R&D systems, 3414-CD) and mouse CD200R1 protein (R&D systems, 2554-CD) at a concentration of 2 μg/mL at 4° C. for 16 hours and then were blocked with 3% skim milk.
(§4) Color was developed with a TMB substrate solution (Thermo Scientific, 34029, 1-Step™ TMB-ELISA Ultra Substrate Solution). The color reaction was stopped with stop solution (Invitrogen, SS04, ELISA Stop Solution). The absorbance was measured at an optical density of 450 nm.

Hybrid CD200R1 MH [5] = biological target: T2, Hybrid CD200R1 MH; test: ELISA, plate-bound MH hybrid (1 ug/mL), antibody 0.0192-300 nM, O.D 450 nm; panel 'P001 MH domain-2)'
Description: as §2

[6] = biological target: T5, monkey CD200RLa (Sino Biological, 11576-C02H) recombinant protein (monkey (cyno), UniProt A0A2K5W6R0 30-246); test: ELISA, plate-bound monkey CD200RLa (2 ug/mL), antibody 0.0192-300 nM, O.D 450 nm; panel 'recombinant cynomolgus CD200RLa/Fc'
T5 construct: Bought; construct not described; also called cyno CD200RLa
T5 sequence: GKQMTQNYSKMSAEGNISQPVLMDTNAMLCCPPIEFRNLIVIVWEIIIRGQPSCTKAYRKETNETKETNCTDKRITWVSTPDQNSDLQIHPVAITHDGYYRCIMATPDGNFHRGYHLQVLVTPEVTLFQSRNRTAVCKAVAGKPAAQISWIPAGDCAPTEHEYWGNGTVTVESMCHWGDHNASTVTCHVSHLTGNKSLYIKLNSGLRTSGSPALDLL
Description: as §1

Hybrid CD200R1 MH [7] = biological target: T2, Hybrid CD200R1 MH; test: ELISA, plate-bound MH hybrid (1 ug/mL), antibody 0.0192-300 nM, O.D 450 nm; panel 'P001 MH domain-4)'
Description: as §2

[8] = biological target: T6, human CD200R1 recombinant protein (construct not stated) (human, UniProt Q8TD46 27-266, limits assumed); test: hybridoma ELISA on human CD200R1
T6 sequence (looked up): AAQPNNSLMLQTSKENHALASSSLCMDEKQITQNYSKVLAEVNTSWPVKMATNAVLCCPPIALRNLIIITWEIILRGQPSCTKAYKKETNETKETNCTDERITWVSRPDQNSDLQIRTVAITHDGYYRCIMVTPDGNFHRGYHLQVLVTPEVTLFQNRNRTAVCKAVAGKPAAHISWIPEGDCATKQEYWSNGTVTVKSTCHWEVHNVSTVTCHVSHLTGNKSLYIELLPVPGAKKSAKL

[9] = biological target: T6, human CD200R1 recombinant protein …; test: ELISA on human CD200R1, O.D 450 nm, 0.0192-300 nM; panel 'P001_CD200R1 human 1'
Description: as §3, §4
The secondary engineered antibodies were evaluated by ELISA in the same manner as in Examples described above.

[10] = biological target: T3, human CD200R1 expressed on cells …; test: flow cytometry, HH cells; drawn table, row EC50
[11] = biological target: T3, human CD200R1 expressed on cells …; test: flow cytometry, HH cells; drawn table

Row | Binder | binding result [1] | binding result (Hybrid CD200R1 MH [2]) | MFI normalized to P001017 (chimeric OX108), % [3] [%] | binding result [4] | also measured
1 | B1 | no binding (tested: 300 nM) | no binding (tested: 300 nM) | > 50 | no binding (tested: 300 nM) | 
2 | B2 | no binding (tested: 300 nM) |  | > 50 | no binding (tested: 300 nM) | binding result (Hybrid CD200R1 MH [5]): no binding (tested: 300 nM); binding result [6]: no binding (tested: 300 nM)
3 | B3 | no binding (tested: 300 nM) | no binding (tested: 300 nM) |  | no binding (tested: 300 nM) | 
4 | B4 | no binding (tested: 300 nM) |  |  | no binding (tested: 300 nM) | binding result (Hybrid CD200R1 MH [5]): no binding (tested: 300 nM)
5 | B5 | no binding (tested: 300 nM) | no binding (tested: 300 nM) |  | no binding (tested: 300 nM) | 
6 | B6 |  |  |  |  | binding result (Hybrid CD200R1 MH [7]): no binding (tested: 300 nM); ELISA O.D. [8]: ≥ 1.5 O.D.
7 | B7 | no binding (tested: 300 nM) |  | > 50 |  | EC50 (read off the curve) [9]: ~2 nM and ~5 nM; EC50 [10]: 6.64 nM; Geo mean (%) at 0.05 nM [11]: 2.1%; Geo mean (%) at 0.19 nM [11]: 6.1%; Geo mean (%) at 0.78 nM [11]: 15.8%; Geo mean (%) at 3.125 nM [11]: 35.2%; Geo mean (%) at 12.5 nM [11]: 65.7%; Geo mean (%) at 50 nM [11]: 79.7%; Geo mean (%) at 200 nM [11]: 96.9%; Geo mean (%) at 800 nM [11]: 100%
